What was measured:
Proleukin® (aldesleukin) [1] = molecular target: T1, Proleukin® (aldesleukin) (human, UniProt P60568 21-153, limits assumed); assay: ELISA, coated Proleukin, serially diluted supernatant
T1 construct: Variant of human wt IL-2 with C145S (C125S on mature IL-2); also called IL-2 (Proleukin®); human IL-2 (Proleukin)

Proleukin® (aldesleukin) [2] = molecular target: T1, Proleukin® (aldesleukin); assay: ELISA, coated Proleukin, HEK293F supernatant 1:2
Method: Subsequently, hIL-2 binding efficiency of the antibodies present in the supernatants was determined using ELISA. In brief, ELISA plates (Maxisorp 96-well black microtiter plate) were coated overnight at 4° C. with 100p/well of Proleukin® (5 μg/ml PBS). ELISA plates were washed once with TBST (1×TBS/0.05% Tween 20) using a plate-washer (BioTek). […] After removal of the blocking buffer, plates were washed once with TBST using the plate washer. Supernatants were diluted 1:2 in blocking buffer and 50 μl transferred to the designated well of the ELISA plate. Each sample was present on three ELISA plates. The three plates were incubated at RT under gentle agitation. […] The other two plates were washed either every hour three times with TBST for 4 hours or washed every hour three times for 12 hours before adding the detection antibody. […] Luminescence signal was measured after 5 minutes incubation in the dark. […] All ELISA values are mean values based on two measurements.

T1 sequence (P60568 other isoform, or with tags, fused parts or gaps limits assumed): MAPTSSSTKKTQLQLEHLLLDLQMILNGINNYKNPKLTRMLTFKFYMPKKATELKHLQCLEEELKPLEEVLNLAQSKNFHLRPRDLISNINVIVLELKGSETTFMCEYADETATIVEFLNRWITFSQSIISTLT

EC50 (Proleukin® (aldesleukin) [1]) [nM] | ELISA value (Normal ELISA) (Proleukin® (aldesleukin) [2]) [luminescence signal] | ELISA value (wash 3x every hour for 4 HRS) (Proleukin® (aldesleukin) [2]) [luminescence signal] | ELISA value (wash 3x every hour for 12 HRS) (Proleukin® (aldesleukin) [2]) [luminescence signal] | Binder
0.79 | 1360 | 1230 | 518 | Antibody No: 2 (antibody, human IgG1, kappa, N297A, V domains shown, VH WT; VK M33L; HEK293F supernatant) VH: EVQLVQSGAEVKKPGESLKISCKGSGYAFTNYLIEWVRQMPGKGLEWMGVINPGSGGTNYNEKFKGQVTISADKSISTAYLQWSSLKASDTAMYYCARWRGEGYYAYFDVWGQGTTVTVSS VL: AIRLTQSPSSFSASTGDRVTITCKASQSVDYQGDSYLNWYQQKPGKAPKLLIYAASNLESGVPSRFSGSGSGTDFTLTISSLQSEDFATYYCQQSNEDPYTFGGGTKVEIKR
1.39 | 3050 | 2820 | 1140 | Antibody No: 17 (antibody, human IgG1, kappa, N297A, V domains shown, VK M33L; HEK293F supernatant) VH: EVQLVQSGAEVKKPGESLKISCKGSGYAFTNYLIEWVRQMPGKGLEWMGVINPGSGGTYYNEKFKGQVTISADKSISTAYLQWSSLKASDTAMYYCARWRGEGYYAYYDVWGQGTTVTVSS VL: AIRLTQSPSSFSASTGDRVTITCKASQSVDYQGDSYLNWYQQKPGKAPKLLIYAASNLESGVPSRFSGSGSGTDFTLTISSLQSEDFATYYCQQSNEDPYTFGGGTKVEIKR
0.26 | 6170 | 4640 | 1250 | Antibody No: 23 (antibody, human IgG1, kappa, N297A, V domains shown, VK A50S; HEK293F supernatant) VH: EVQLVQSGAEVKKPGESLKISCKGSGYAFSNYLIEWVRQMPGKGLEWMGVINPGSGGTNYNEKFKGQVTISADKSISTAYLQWSSLKASDTAMYYCARWRGEGYYAYYDVWGQGTTVTVSS VL: AIRLTQSPSSFSASTGDRVTITCKASQSVDYQGDSYMNWYQQKPGKAPKLLIYSASNLESGVPSRFSGSGSGTDFTLTISSLQSEDFATYYCQQSNEDPYTFGGGTKVEIKR
0.31 | 7640 | 6360 | 1550 | Antibody No: 7 (antibody, human IgG1, kappa, N297A, V domains shown, VK M33L; HEK293F supernatant) VH: EVQLVQSGAEVKKPGESLKISCKGSGYAFTNYLIEWVRQMPGKGLEWMGVINPGSGGTNYNEKFKGQVTISADKSISTAYLQWSSLKASDTAMYYCARWRGEGYYAYYDVWGQGTTVTVSS VL: AIRLTQSPSSFSASTGDRVTITCKASQSVDYQGDSYLNWYQQKPGKAPKLLIYAASNLESGVPSRFSGSGSGTDFTLTISSLQSEDFATYYCQQSNEDPYTFGGGTKVEIKR
0.38 | 10200 | 9810 | 2280 | Antibody No: 16 (antibody, human IgG1, kappa, N297A, V domains shown, VK WT; HEK293F supernatant) VH: EVQLVQSGAEVKKPGESLKISCKGSGYAFTNYLIEWVRQMPGKGLEWMGVINPGSGGTYYNEKFKGQVTISADKSISTAYLQWSSLKASDTAMYYCARWRGEGYYAYYDVWGQGTTVTVSS VL: AIRLTQSPSSFSASTGDRVTITCKASQSVDYQGDSYMNWYQQKPGKAPKLLIYAASNLESGVPSRFSGSGSGTDFTLTISSLQSEDFATYYCQQSNEDPYTFGGGTKVEIKR
0.5 | 4970 | 4490 | 873 | Antibody No: 5 (antibody, human IgG1, kappa, N297A, V domains shown, VH WT; VK M33L + A50S; HEK293F supernatant) VH: EVQLVQSGAEVKKPGESLKISCKGSGYAFTNYLIEWVRQMPGKGLEWMGVINPGSGGTNYNEKFKGQVTISADKSISTAYLQWSSLKASDTAMYYCARWRGEGYYAYFDVWGQGTTVTVSS VL: AIRLTQSPSSFSASTGDRVTITCKASQSVDYQGDSYLNWYQQKPGKAPKLLIYSASNLESGVPSRFSGSGSGTDFTLTISSLQSEDFATYYCQQSNEDPYTFGGGTKVEIKR
0.65 | 2200 | 1840 | 892 | Antibody No: 21 (antibody, human IgG1, kappa, N297A, V domains shown, VK WT; HEK293F supernatant) VH: EVQLVQSGAEVKKPGESLKISCKGSGYAFSNYLIEWVRQMPGKGLEWMGVINPGSGGTNYNEKFKGQVTISADKSISTAYLQWSSLKASDTAMYYCARWRGEGYYAYYDVWGQGTTVTVSS VL: AIRLTQSPSSFSASTGDRVTITCKASQSVDYQGDSYMNWYQQKPGKAPKLLIYAASNLESGVPSRFSGSGSGTDFTLTISSLQSEDFATYYCQQSNEDPYTFGGGTKVEIKR
0.51 | 4500 | 4580 | 1310 | Antibody No: 3 (antibody, human IgG1, kappa, N297A, V domains shown, VH WT; VK A50S; HEK293F supernatant) VH: EVQLVQSGAEVKKPGESLKISCKGSGYAFTNYLIEWVRQMPGKGLEWMGVINPGSGGTNYNEKFKGQVTISADKSISTAYLQWSSLKASDTAMYYCARWRGEGYYAYFDVWGQGTTVTVSS VL: AIRLTQSPSSFSASTGDRVTITCKASQSVDYQGDSYMNWYQQKPGKAPKLLIYSASNLESGVPSRFSGSGSGTDFTLTISSLQSEDFATYYCQQSNEDPYTFGGGTKVEIKR
0.34 | 12400 | 10500 | 3500 | Antibody No: 11 (antibody, human IgG1, kappa, N297A, V domains shown, VH N58Y; VK WT; HEK293F supernatant) VH: EVQLVQSGAEVKKPGESLKISCKGSGYAFTNYLIEWVRQMPGKGLEWMGVINPGSGGTYYNEKFKGQVTISADKSISTAYLQWSSLKASDTAMYYCARWRGEGYYAYFDVWGQGTTVTVSS VL: AIRLTQSPSSFSASTGDRVTITCKASQSVDYQGDSYMNWYQQKPGKAPKLLIYAASNLESGVPSRFSGSGSGTDFTLTISSLQSEDFATYYCQQSNEDPYTFGGGTKVEIKR
0.34 | 5850 | 5120 | 1730 | Antibody No: 6 (antibody, human IgG1, kappa, N297A, V domains shown, VK WT; HEK293F supernatant) VH: EVQLVQSGAEVKKPGESLKISCKGSGYAFTNYLIEWVRQMPGKGLEWMGVINPGSGGTNYNEKFKGQVTISADKSISTAYLQWSSLKASDTAMYYCARWRGEGYYAYYDVWGQGTTVTVSS VL: AIRLTQSPSSFSASTGDRVTITCKASQSVDYQGDSYMNWYQQKPGKAPKLLIYAASNLESGVPSRFSGSGSGTDFTLTISSLQSEDFATYYCQQSNEDPYTFGGGTKVEIKR
0.5 | 1940 | 1430 | 686 | Antibody No: 9 (antibody, human IgG1, kappa, N297A, V domains shown, VK A50T; HEK293F supernatant) VH: EVQLVQSGAEVKKPGESLKISCKGSGYAFTNYLIEWVRQMPGKGLEWMGVINPGSGGTNYNEKFKGQVTISADKSISTAYLQWSSLKASDTAMYYCARWRGEGYYAYYDVWGQGTTVTVSS VL: AIRLTQSPSSFSASTGDRVTITCKASQSVDYQGDSYMNWYQQKPGKAPKLLIYTASNLESGVPSRFSGSGSGTDFTLTISSLQSEDFATYYCQQSNEDPYTFGGGTKVEIKR
0.43 | 3970 | 3190 | 1200 | Antibody No: 22 (antibody, human IgG1, kappa, N297A, V domains shown, VK M33L; HEK293F supernatant) VH: EVQLVQSGAEVKKPGESLKISCKGSGYAFSNYLIEWVRQMPGKGLEWMGVINPGSGGTNYNEKFKGQVTISADKSISTAYLQWSSLKASDTAMYYCARWRGEGYYAYYDVWGQGTTVTVSS VL: AIRLTQSPSSFSASTGDRVTITCKASQSVDYQGDSYLNWYQQKPGKAPKLLIYAASNLESGVPSRFSGSGSGTDFTLTISSLQSEDFATYYCQQSNEDPYTFGGGTKVEIKR
0.5 | 5400 | 4880 | 2210 | Antibody No: 19 (antibody, human IgG1, kappa, N297A, V domains shown, VK A50T; HEK293F supernatant) VH: EVQLVQSGAEVKKPGESLKISCKGSGYAFTNYLIEWVRQMPGKGLEWMGVINPGSGGTYYNEKFKGQVTISADKSISTAYLQWSSLKASDTAMYYCARWRGEGYYAYYDVWGQGTTVTVSS VL: AIRLTQSPSSFSASTGDRVTITCKASQSVDYQGDSYMNWYQQKPGKAPKLLIYTASNLESGVPSRFSGSGSGTDFTLTISSLQSEDFATYYCQQSNEDPYTFGGGTKVEIKR
0.73 | 2180 | 1990 | 705 | Antibody No: 4 (antibody, human IgG1, kappa, N297A, V domains shown, VH WT; VK A50T; HEK293F supernatant) VH: EVQLVQSGAEVKKPGESLKISCKGSGYAFTNYLIEWVRQMPGKGLEWMGVINPGSGGTNYNEKFKGQVTISADKSISTAYLQWSSLKASDTAMYYCARWRGEGYYAYFDVWGQGTTVTVSS VL: AIRLTQSPSSFSASTGDRVTITCKASQSVDYQGDSYMNWYQQKPGKAPKLLIYTASNLESGVPSRFSGSGSGTDFTLTISSLQSEDFATYYCQQSNEDPYTFGGGTKVEIKR
0.35 | 6050 | 4430 | 1630 | Antibody No: 10 (antibody, human IgG1, kappa, N297A, V domains shown, VK M33L + A50S; HEK293F supernatant) VH: EVQLVQSGAEVKKPGESLKISCKGSGYAFTNYLIEWVRQMPGKGLEWMGVINPGSGGTNYNEKFKGQVTISADKSISTAYLQWSSLKASDTAMYYCARWRGEGYYAYYDVWGQGTTVTVSS VL: AIRLTQSPSSFSASTGDRVTITCKASQSVDYQGDSYLNWYQQKPGKAPKLLIYSASNLESGVPSRFSGSGSGTDFTLTISSLQSEDFATYYCQQSNEDPYTFGGGTKVEIKR
0.54 | 8060 | 7320 | 3660 | Antibody No: 18 (antibody, human IgG1, kappa, N297A, V domains shown, VK A50S; HEK293F supernatant) VH: EVQLVQSGAEVKKPGESLKISCKGSGYAFTNYLIEWVRQMPGKGLEWMGVINPGSGGTYYNEKFKGQVTISADKSISTAYLQWSSLKASDTAMYYCARWRGEGYYAYYDVWGQGTTVTVSS VL: AIRLTQSPSSFSASTGDRVTITCKASQSVDYQGDSYMNWYQQKPGKAPKLLIYSASNLESGVPSRFSGSGSGTDFTLTISSLQSEDFATYYCQQSNEDPYTFGGGTKVEIKR
0.36 | 7180 | 7200 | 2540 | Antibody No: 14 (antibody, human IgG1, kappa, N297A, V domains shown, VH N58Y; VK A50T; HEK293F supernatant) VH: EVQLVQSGAEVKKPGESLKISCKGSGYAFTNYLIEWVRQMPGKGLEWMGVINPGSGGTYYNEKFKGQVTISADKSISTAYLQWSSLKASDTAMYYCARWRGEGYYAYFDVWGQGTTVTVSS VL: AIRLTQSPSSFSASTGDRVTITCKASQSVDYQGDSYMNWYQQKPGKAPKLLIYTASNLESGVPSRFSGSGSGTDFTLTISSLQSEDFATYYCQQSNEDPYTFGGGTKVEIKR
